Measured values from the supplement of paper PMC10567573.

B1: FBXO33 (parent)
chain: RLRGLLRVLRGRPGAGSRRRGRMA
B2: HESX1 (parent)
chain: HVPNPPSGISFPSVVDHPMPEERA

Variants of: B1
Test: protein stability index of a GFP-peptide fusion (GPS, HEK-293T) (PSI 1-6); higher = more stable
Conditions: c terminus: a fixed tail appended
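Further: lentivirally expressed fusions sorted by FACS into six bins by GFP to DsRed ratio, PSI derived from sequencing read proportions per bin multiplied by bin number.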

Point of comparison: RLRGLLRVLRGRPGAGSRRRGIMA [R22I], protein stability index 2.78. Against it:
- RLRGLLRVLRGRPGAGSRRRFRMA [G21F] — lower, 1.58
- RLRGLLRVLRGRPGAGSRRRPRMA [G21P] — lower, 1.69
- RLRGLLRVLRGRPGAGSRRRRRMA [G21R] — higher, 3.38
- RLRGLLRVLRGRPGAGSRRRDRMA [G21D] — lower, 1.78
- RLRGLLRVLRGRPGAGSRRRIRMA [G21I] — lower, 2.32
- RLRGLLRVLRGRPGAGSRRRHRMA [G21H] — lower, 1.66
- RLRGLLRVLRGRPGAGSRRRLRMA [G21L] — lower, 1.57
- RLRGLLRVLRGRPGAGSRRRGRLA [M23L] — higher, 2.89
- RLRGLLRVLRGRPGAGSRRRGRNA [M23N] — lower, 2.02
- RLRGLLRVLRGRPGAGSRRRGRPA [M23P] — lower, 1.58
- RLRGLLRVLRGRPGAGSRRRGRTA [M23T] — lower, 2.44
- RLRGLLRVLRGRPGAGSRRRGRVA [M23V] — lower, 1.97
- RLRGLLRVLRGRPGAGSRRRGRHA [M23H] — lower, 2.42
- RLRGLLRVLRGRPGAGSRRRGKMA [R22K] — lower, 1.76
- RLRGLLRVLRGRPGAGSRRRGHMA [R22H] — lower, 2.33
- RLRGLLRVLRGRPGAGSRRRGNMA [R22N] — lower, 1.77
- RLRGLLRVLRGRPGAGSRRRGYMA [R22Y] — lower, 1.7
- RLRGLLRVLRGRPGAGSRRRGCMA [R22C] — lower, 2.09
- RLRGLLRVLRGRPGAGSRRRGWMA [R22W] — lower, 1.65
- RLRGLLRVLRGRPGAGSRRRGMMA [R22M] — lower, 2.25
- RLRGLLRVLRGRPGAGSRRRGSMA [R22S] — lower, 1.99
- RLRGLLRVLRGRPGAGSRRRGRMD [A24D] — lower, 1.04
- RLRGLLRVLRGRPGAGSRRRGRME [A24E] — lower, 2.54
- RLRGLLRVLRGRPGAGSRRRGRMR [A24R] — lower, 2.63
- RLRGLLRVLRGRPGAGSRRRGRMI [A24I] — lower, 1.46
- RLRGLLRVLRGRPGAGSRRRGRMP [A24P] — higher, 3.3
- RLRGLLRVLRGRPGAGSRRRGRMY [A24Y] — lower, 2.27
- RLRGLLRVLRGRPGAGSRRRGRMQ [A24Q] — lower, 2.74
- RLRGLLRVLRGRPGAGSRRRGRMW [A24W] — lower, 2.42
- RLRGLLRVLRGRPGAGSRRRGRMF [A24F] — lower, 2.73
- RLRGLLRVLRGRPGAGSRRRGRML [A24L] — lower, 1.64

Variants of: B2
Test: as above
Conditions: c terminus: a fixed tail appended

Point of comparison: HVPNPPSEISFPSVVDHPMPEERA [G8E], protein stability index 3.01. Against it:
- HVPNPFSGISFPSVVDHPMPEERA [P6F] — lower, 1.59
- HVPNPSSGISFPSVVDHPMPEERA [P6S] — lower, 2.4
- HVPNPQSGISFPSVVDHPMPEERA [P6Q] — lower, 2.67
- HVPNPYSGISFPSVVDHPMPEERA [P6Y] — lower, 2.39
- HVPNPNSGISFPSVVDHPMPEERA [P6N] — lower, 2
- HVPNPWSGISFPSVVDHPMPEERA [P6W] — lower, 2.25
- HVPNPRSGISFPSVVDHPMPEERA [P6R] — lower, 1.71
- HVPNPMSGISFPSVVDHPMPEERA [P6M] — lower, 2.63
- HVPNPPSGISFPEVVDHPMPEERA [S13E] — higher, 3.65
- HVPNPPSGISFPFVVDHPMPEERA [S13F] — lower, 1.89
- HVPNPPSGISFPVVVDHPMPEERA [S13V] — lower, 2.43
- HVPNPPSGISFPKVVDHPMPEERA [S13K] — lower, 1.71
- HVPNPPSGISFPWVVDHPMPEERA [S13W] — lower, 2.14
- HVPNPPSGISFPIVVDHPMPEERA [S13I] — lower, 2.58
- HVPNPPSGISFPHVVDHPMPEERA [S13H] — lower, 2.33
- HFPNPPSGISFPSVVDHPMPEERA [V2F] — higher, 4.78
- HLPNPPSGISFPSVVDHPMPEERA [V2L] — higher, 5
- HDPNPPSGISFPSVVDHPMPEERA [V2D] — higher, 5.52
- HWPNPPSGISFPSVVDHPMPEERA [V2W] — higher, 4.53
- HGPNPPSGISFPSVVDHPMPEERA [V2G] — higher, 5.17
- HHPNPPSGISFPSVVDHPMPEERA [V2H] — higher, 4.86
- HIPNPPSGISFPSVVDHPMPEERA [V2I] — higher, 4.37
- HNPNPPSGISFPSVVDHPMPEERA [V2N] — higher, 5.14
- HVPNPPSGISFPSVVDHPMPEEAA [R23A] — lower, 2.53
- HVPNPPSGISFPSVVDHPMPEENA [R23N] — lower, 2.73
- HVPNPPSGISFPSVVDHPMPEEMA [R23M] — lower, 2.38
- HVPNPPSGISFPSVVDHPMPEEDA [R23D] — lower, 3
- HVPNPPSGISFPSVVDHPMPEEQA [R23Q] — lower, 2.21
- HVPNMPSGISFPSVVDHPMPEERA [P5M] — lower, 2.95
- HVPNIPSGISFPSVVDHPMPEERA [P5I] — higher, 3.02
- HVPNVPSGISFPSVVDHPMPEERA [P5V] — lower, 2.82
- HVPNTPSGISFPSVVDHPMPEERA [P5T] — lower, 2.74
- HVPNCPSGISFPSVVDHPMPEERA [P5C] — lower, 2.45
- HVPNSPSGISFPSVVDHPMPEERA [P5S] — higher, 3.76
- HVPWPPSGISFPSVVDHPMPEERA [N4W] — higher, 3.44
- HVPIPPSGISFPSVVDHPMPEERA [N4I] — higher, 3.54
- HVPCPPSGISFPSVVDHPMPEERA [N4C] — lower, 2.23
- HVPEPPSGISFPSVVDHPMPEERA [N4E] — higher, 3.8
- HVPNPPSGISFPSVVDHPMPELRA [E22L] — lower, 1.94
- HVPNPPSGISFPSVVDHPMPENRA [E22N] — lower, 2.02
- HVPNPPSGISFPSVVDHPMPETRA [E22T] — lower, 2.33
- HVPNPPSGISFPSVVDHPMPECRA [E22C] — lower, 2.15
- HVPNPPSGISFPSVVDHPMPEYRA [E22Y] — lower, 2.68
- HVPNPPSGISFPSVVDHPMPEQRA [E22Q] — lower, 2.77
- HVPNPPSDISFPSVVDHPMPEERA [G8D] — higher, 4.1
- HVPNPPSRISFPSVVDHPMPEERA [G8R] — lower, 2.94
- HVPNPPSMISFPSVVDHPMPEERA [G8M] — lower, 2.59
- HVPNPPSCISFPSVVDHPMPEERA [G8C] — lower, 2.36
- HVPNPPSGISFPSVVDHPRPEERA [M19R] — lower, 2.83
- HVPNPPSGISFPSVVDHPHPEERA [M19H] — higher, 3.03
- HVPNPPSGISFPSVVDHPQPEERA [M19Q] — higher, 3.17
- HVPNPPSGISFPSVVDHPKPEERA [M19K] — higher, 3.31
- HVPNPPSGISFPSVVDHPDPEERA [M19D] — lower, 2.94
- HVPNPPSGISFPSVVDHPEPEERA [M19E] — higher, 3.69
- HVPNPPSGISFPSVVDHPFPEERA [M19F] — lower, 2.65
- HVPNPPSGISFPSVVDKPMPEERA [H17K] — lower, 2.24
- HVPNPPSGISFPSVVDRPMPEERA [H17R] — lower, 2.77
- HVPNPPSGISFPSVVDQPMPEERA [H17Q] — lower, 2.68
- HVPNPPSGISFPSVVDPPMPEERA [H17P] — lower, 2.11
- HVPNPPSGISFPSVVDIPMPEERA [H17I] — lower, 2.66
- HVPNPPSGISFPSVVDVPMPEERA [H17V] — lower, 2.57
